Assay results taken from paper PMC12416549 (2024).

Target: T1, TNFR1 (Homo sapiens, UniProt P19438)
T1 chain: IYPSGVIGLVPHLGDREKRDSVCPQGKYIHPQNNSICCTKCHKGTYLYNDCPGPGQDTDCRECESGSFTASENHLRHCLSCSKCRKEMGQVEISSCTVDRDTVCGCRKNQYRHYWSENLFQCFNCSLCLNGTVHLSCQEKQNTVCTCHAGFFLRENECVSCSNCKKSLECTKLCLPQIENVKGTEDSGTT
Test: yeast display SC50

B1: A105G (designed binder)
chain: SMEEEVEKAAKEYEKKKKEAIEKHLEKLKAKDKEAAERFLKELEEAAKEYAKDEAKTMSEEEAKRRAKKYKEKVLLSELSEEEQKEIKEAEEKLVRTILKYVEEGAK
In the case of B1, the “apparent Kd (screen)” value is reported as 0.446 nM.

B2: A30G (designed binder)
chain: SMEEEVEKAAKEYEKKKKEAIEKHLEKLKGKDKEAAERFLKELEEAAKEYAKDEAKTMSEEEAKRRAKKYKEKVLLSELSEEEQKEIKEAEEKLVRTILKYVEEAAK
With B2 the “apparent Kd (screen)” value was 0.956 nM.

B3: S80R (designed binder)
chain: SMEEEVEKAAKEYEKKKKEAIEKHLEKLKAKDKEAAERFLKELEEAAKEYAKDEAKTMSEEEAKRRAKKYKEKVLLSELREEEQKEIKEAEEKLVRTILKYVEEAAK
In the case of B3, the “apparent Kd (screen)” value is reported as 0.593 nM.

B4: V74S (designed binder)
chain: SMEEEVEKAAKEYEKKKKEAIEKHLEKLKAKDKEAAERFLKELEEAAKEYAKDEAKTMSEEEAKRRAKKYKEKSLLSELSEEEQKEIKEAEEKLVRTILKYVEEAAK
For B4, the “apparent Kd (screen)” value was 22.2 nM.

B5: D32T (designed binder)
chain: SMEEEVEKAAKEYEKKKKEAIEKHLEKLKAKTKEAAERFLKELEEAAKEYAKDEAKTMSEEEAKRRAKKYKEKVLLSELSEEEQKEIKEAEEKLVRTILKYVEEAAK
For B5, the “apparent Kd (screen)” value was 1.4 nM.

B6: K33N (designed binder)
chain: SMEEEVEKAAKEYEKKKKEAIEKHLEKLKAKDNEAAERFLKELEEAAKEYAKDEAKTMSEEEAKRRAKKYKEKVLLSELSEEEQKEIKEAEEKLVRTILKYVEEAAK
With B6 the “apparent Kd (screen)” value was 1.05 nM.

B7: A36N (designed binder)
chain: SMEEEVEKAAKEYEKKKKEAIEKHLEKLKAKDKEANERFLKELEEAAKEYAKDEAKTMSEEEAKRRAKKYKEKVLLSELSEEEQKEIKEAEEKLVRTILKYVEEAAK
With B7 the “apparent Kd (screen)” value was 2.73 nM.

B8: L76Y (designed binder)
chain: SMEEEVEKAAKEYEKKKKEAIEKHLEKLKAKDKEAAERFLKELEEAAKEYAKDEAKTMSEEEAKRRAKKYKEKVLYSELSEEEQKEIKEAEEKLVRTILKYVEEAAK
B8 was tested, and the “apparent Kd (screen)” value was 2.05 nM.

B9: S77K (designed binder)
chain: SMEEEVEKAAKEYEKKKKEAIEKHLEKLKAKDKEAAERFLKELEEAAKEYAKDEAKTMSEEEAKRRAKKYKEKVLLKELSEEEQKEIKEAEEKLVRTILKYVEEAAK
In the case of B9, the “apparent Kd (screen)” value is reported as 4.83 nM.

B10: A35T (designed binder)
chain: SMEEEVEKAAKEYEKKKKEAIEKHLEKLKAKDKETAERFLKELEEAAKEYAKDEAKTMSEEEAKRRAKKYKEKVLLSELSEEEQKEIKEAEEKLVRTILKYVEEAAK
B10 was tested, and the “apparent Kd (screen)” value was 0.593 nM.

B11: K15V (designed binder)
chain: SMEEEVEKAAKEYEVKKKEAIEKHLEKLKAKDKEAAERFLKELEEAAKEYAKDEAKTMSEEEAKRRAKKYKEKVLLSELSEEEQKEIKEAEEKLVRTILKYVEEAAK
In the case of B11, the “apparent Kd (screen)” value is reported as 1.05 nM.

B12: E5S (designed binder)
chain: SMEESVEKAAKEYEKKKKEAIEKHLEKLKAKDKEAAERFLKELEEAAKEYAKDEAKTMSEEEAKRRAKKYKEKVLLSELSEEEQKEIKEAEEKLVRTILKYVEEAAK
With B12 the “apparent Kd (screen)” value was 0.593 nM.

B13: L94D (designed binder)
chain: SMEEEVEKAAKEYEKKKKEAIEKHLEKLKAKDKEAAERFLKELEEAAKEYAKDEAKTMSEEEAKRRAKKYKEKVLLSELSEEEQKEIKEAEEKDVRTILKYVEEAAK
In the case of B13, the “apparent Kd (screen)” value is reported as 1.86 nM.

B14: L79E (designed binder)
chain: SMEEEVEKAAKEYEKKKKEAIEKHLEKLKAKDKEAAERFLKELEEAAKEYAKDEAKTMSEEEAKRRAKKYKEKVLLSEESEEEQKEIKEAEEKLVRTILKYVEEAAK
In the case of B14, the “apparent Kd (screen)” value is reported as 18.3 nM.

B15: R38Y (designed binder)
chain: SMEEEVEKAAKEYEKKKKEAIEKHLEKLKAKDKEAAEYFLKELEEAAKEYAKDEAKTMSEEEAKRRAKKYKEKVLLSELSEEEQKEIKEAEEKLVRTILKYVEEAAK
B15 was tested, and the “apparent Kd (screen)” value was 0.49 nM.

B16: E42I (designed binder)
chain: SMEEEVEKAAKEYEKKKKEAIEKHLEKLKAKDKEAAERFLKILEEAAKEYAKDEAKTMSEEEAKRRAKKYKEKVLLSELSEEEQKEIKEAEEKLVRTILKYVEEAAK
In the case of B16, the “apparent Kd (screen)” value is reported as 6.43 nM.

B17: F39K (designed binder)
chain: SMEEEVEKAAKEYEKKKKEAIEKHLEKLKAKDKEAAERKLKELEEAAKEYAKDEAKTMSEEEAKRRAKKYKEKVLLSELSEEEQKEIKEAEEKLVRTILKYVEEAAK
In the case of B17, the “apparent Kd (screen)” value is reported as 8.56 nM.

B18: E92D (designed binder)
chain: SMEEEVEKAAKEYEKKKKEAIEKHLEKLKAKDKEAAERFLKELEEAAKEYAKDEAKTMSEEEAKRRAKKYKEKVLLSELSEEEQKEIKEAEDKLVRTILKYVEEAAK
For B18, the “apparent Kd (screen)” value was 0.446 nM.

B19: R96V (designed binder)
chain: SMEEEVEKAAKEYEKKKKEAIEKHLEKLKAKDKEAAERFLKELEEAAKEYAKDEAKTMSEEEAKRRAKKYKEKVLLSELSEEEQKEIKEAEEKLVVTILKYVEEAAK
For B19, the “apparent Kd (screen)” value was 0.869 nM.

B20: E7Y (designed binder)
chain: SMEEEVYKAAKEYEKKKKEAIEKHLEKLKAKDKEAAERFLKELEEAAKEYAKDEAKTMSEEEAKRRAKKYKEKVLLSELSEEEQKEIKEAEEKLVRTILKYVEEAAK
In the case of B20, the “apparent Kd (screen)” value is reported as 7.07 nM.

B21: K18M (designed binder)
chain: SMEEEVEKAAKEYEKKKMEAIEKHLEKLKAKDKEAAERFLKELEEAAKEYAKDEAKTMSEEEAKRRAKKYKEKVLLSELSEEEQKEIKEAEEKLVRTILKYVEEAAK
With B21 the “apparent Kd (screen)” value was 1.05 nM.

B22: E61H (designed binder)
chain: SMEEEVEKAAKEYEKKKKEAIEKHLEKLKAKDKEAAERFLKELEEAAKEYAKDEAKTMSEHEAKRRAKKYKEKVLLSELSEEEQKEIKEAEEKLVRTILKYVEEAAK
With B22 the “apparent Kd (screen)” value was 1.54 nM.

B23: E4F (designed binder)
chain: SMEFEVEKAAKEYEKKKKEAIEKHLEKLKAKDKEAAERFLKELEEAAKEYAKDEAKTMSEEEAKRRAKKYKEKVLLSELSEEEQKEIKEAEEKLVRTILKYVEEAAK
For B23, the “apparent Kd (screen)” value was 1.69 nM.

B24: K17H (designed binder)
chain: SMEEEVEKAAKEYEKKHKEAIEKHLEKLKAKDKEAAERFLKELEEAAKEYAKDEAKTMSEEEAKRRAKKYKEKVLLSELSEEEQKEIKEAEEKLVRTILKYVEEAAK
With B24 the “apparent Kd (screen)” value was 0.869 nM.

B25: K71I (designed binder)
chain: SMEEEVEKAAKEYEKKKKEAIEKHLEKLKAKDKEAAERFLKELEEAAKEYAKDEAKTMSEEEAKRRAKKYIEKVLLSELSEEEQKEIKEAEEKLVRTILKYVEEAAK
With B25 the “apparent Kd (screen)” value was 0.539 nM.

B26: A105L (designed binder)
chain: SMEEEVEKAAKEYEKKKKEAIEKHLEKLKAKDKEAAERFLKELEEAAKEYAKDEAKTMSEEEAKRRAKKYKEKVLLSELSEEEQKEIKEAEEKLVRTILKYVEELAK
With B26 the “apparent Kd (screen)” value was 1.86 nM.

B27: Y13L (designed binder)
chain: SMEEEVEKAAKELEKKKKEAIEKHLEKLKAKDKEAAERFLKELEEAAKEYAKDEAKTMSEEEAKRRAKKYKEKVLLSELSEEEQKEIKEAEEKLVRTILKYVEEAAK
With B27 the “apparent Kd (screen)” value was 1.86 nM.

B28: E54H (designed binder)
chain: SMEEEVEKAAKEYEKKKKEAIEKHLEKLKAKDKEAAERFLKELEEAAKEYAKDHAKTMSEEEAKRRAKKYKEKVLLSELSEEEQKEIKEAEEKLVRTILKYVEEAAK
In the case of B28, the “apparent Kd (screen)” value is reported as 12.5 nM.

B29: E91M (designed binder)
chain: SMEEEVEKAAKEYEKKKKEAIEKHLEKLKAKDKEAAERFLKELEEAAKEYAKDEAKTMSEEEAKRRAKKYKEKVLLSELSEEEQKEIKEAMEKLVRTILKYVEEAAK
For B29, the “apparent Kd (screen)” value was 11.4 nM.

B30: K16S (designed binder)
chain: SMEEEVEKAAKEYEKSKKEAIEKHLEKLKAKDKEAAERFLKELEEAAKEYAKDEAKTMSEEEAKRRAKKYKEKVLLSELSEEEQKEIKEAEEKLVRTILKYVEEAAK
B30 was tested, and the “apparent Kd (screen)” value was 3 nM.

B31: E19C (designed binder)
chain: SMEEEVEKAAKEYEKKKKCAIEKHLEKLKAKDKEAAERFLKELEEAAKEYAKDEAKTMSEEEAKRRAKKYKEKVLLSELSEEEQKEIKEAEEKLVRTILKYVEEAAK
With B31 the “apparent Kd (screen)” value was 0.446 nM.

B32: E61Y (designed binder)
chain: SMEEEVEKAAKEYEKKKKEAIEKHLEKLKAKDKEAAERFLKELEEAAKEYAKDEAKTMSEYEAKRRAKKYKEKVLLSELSEEEQKEIKEAEEKLVRTILKYVEEAAK
In the case of B32, the “apparent Kd (screen)” value is reported as 1.86 nM.

B33: M2L (designed binder)
chain: SLEEEVEKAAKEYEKKKKEAIEKHLEKLKAKDKEAAERFLKELEEAAKEYAKDEAKTMSEEEAKRRAKKYKEKVLLSELSEEEQKEIKEAEEKLVRTILKYVEEAAK
For B33, the “apparent Kd (screen)” value was 1.05 nM.

B34: T57A (designed binder)
chain: SMEEEVEKAAKEYEKKKKEAIEKHLEKLKAKDKEAAERFLKELEEAAKEYAKDEAKAMSEEEAKRRAKKYKEKVLLSELSEEEQKEIKEAEEKLVRTILKYVEEAAK
In the case of B34, the “apparent Kd (screen)” value is reported as 2.73 nM.

B35: D53W (designed binder)
chain: SMEEEVEKAAKEYEKKKKEAIEKHLEKLKAKDKEAAERFLKELEEAAKEYAKWEAKTMSEEEAKRRAKKYKEKVLLSELSEEEQKEIKEAEEKLVRTILKYVEEAAK
B35 was tested, and the “apparent Kd (screen)” value was 10.4 nM.
